B1: GFP-VAPA [human] / myc-WDR44 [human] (parent complex)
chain 1: MASASGAMAKHEQILVLDPPTDLKFKGPFTDVVTTNLKLRNPSDRKVCFKVKTTAPRRYCVRPNSGIIDPGSTVTVSVMLQPFDYDPNEKSKHKFMVQTIFAPPNTSDMEAVWKEAKPDELMDSKLRCVFEMPNENDKLNDMEPSKAVPLNASKQDGPMPKPHSVSLNDTETRKLMEECKRLQGEMMKLSEENRHLRDEGLRLRKVAHSDKPGSTSTASFRDNVTSPLPSLLVVIAAIFIGFFLGKFIL
chain 2: MASESDTEEFYDAPEDVHLGGGYPVGSPGKVGLSTFKETENTAYKVGNESPVQELKQDVSKKIIESIIEESQKVLQLEDDSLDSKGKELSDQATASPIVARTDLSNIPGLLAIDQVLPEESQKAESQNTFEETELELKKCFPSDETCEKPVDETTKLTQTSSTEQLNVLETETEVLNKEAVEVKGGGDVLEPVSSDSLSTKDFAAVEEVAPAKPPRHLTPEPDIVASTKKPVPARPPPPTNFPPPRPPPPSRPAPPPRKRKSELEFETLKTPDIDVPKENITSDSLLTASMASESTVKDSQPSLDLASATSGDKIVTAQENGKAPDGQTVAGEVMGPQRPRSNSGRELTDEEILASVMIKNLDTGEEIPLSLAEEKLPTGINPLTLHIMRRTKEYVSNDAAQSDDEEKLQSQPTDTDGGRLKQKTTQLKKFLGKSVKRAKHLAEEYGERAINKVKSVRDEVFHTDQDDPSSSDDEGMPYTRPVKFKAAHGFKGPYDFDQIKVVQDLSGEHMGAVWTMKFSHCGRLLASAGQDNVVRIWALKNAFDYFNNMRMKYNTEGRVSPSPSQESLSSSKSDTDTGVCSGTDEDPDDKNAPFRQRPFCKYKGHTADLLDLSWSKNYFLLSSSMDKTVRLWHISRRECLCCFQHIDFVTAIAFHPRDDRYFLSGSLDGKLRLWNIPDKKVALWNEVDGQTKLITAANFCQNGKYAVIGTYDGRCIFYDTEHLKYHTQIHVRSTRGRNKVGRKITGIEPLPGENKILVTSNDSRIRLYDLRDLSLSMKYKGYVNSSSQIKASFSHDFTYLVSGSEDKYVYIWSTYHDLSKFTSVRRDRNDFWEGIKAHNAVVTSAIFAPNPSLMLSLDVQSEKSEGNEKSEDAEVLDATPSGIMKTDNTEVLLSADFTGAIKVFVNKRKNVS
B2: myc-MICAL1 [human] / GRAF1b-GFP [human] (parent complex)
chain 1: MASPTSTNPAHAHFESFLQAQLCQDVLSSFQELCGALGLEPGGGLPQYHKIKDQLNYWSAKSLWTKLDKRAGQPVYQQGRACTSTKCLVVGAGPCGLRVAVELALLGARVVLVEKRTKFSRHNVLHLWPFTIHDLRALGAKKFYGRFCTGTLDHISIRQLQLLLLKVALLLGVEIHWGVTFTGLQPPPRKGSGWRAQLQPNPPAQLANYEFDVLISAAGGKFVPEGFKVREMRGKLAIGITANFVNGRTVEETQVPEISGVARIYNQSFFQSLLKATGIDLENIVYYKDDTHYFVMTAKKQCLLRLGVLRQDWPDTNRLLGSANVVPEALQRFTRAAADFATHGKLGKLEFAQDAHGQPDVSAFDFTSMMRAESSARVQEKHGARLLLGLVGDCLVEPFWPLGTGVARGFLAAFDAAWMVKRWAEGAESLEVLAERESLYQLLSQTSPENMHRNVAQYGLDPATRYPNLNLRAVTPNQVRDLYDVLAKEPVQRNNDKTDTGMPATGSAGTQEELLRWCQEQTAGYPGVHVSDLSSSWADGLALCALVYRLQPGLLEPSELQGLGALEATAWALKVAENELGITPVVSAQAVVAGSDPLGLIAYLSHFHSAFKSMAHSPGPVSQASPGTSSAVLFLSKLQRTLQRSRAKENAEDAGGKKLRLEMEAETPSTEVPPDPEPGVPLTPPSQHQEAGAGDLCALCGEHLYVLERLCVNGHFFHRSCFRCHTCEATLWPGGYEQHPGDGHFYCLQHLPQTDHKAEGSDRGPESPELPTPSENSMPPGLSTPTASQEGAGPVPDPSQPTRRQIRLSSPERQRLSSLNLTPDPEMEPPPKPPRSCSALARHALESSFVGWGLPVQSPQALVAMEKEEKESPFSSEEEEEDVPLDSDVEQALQTFAKTSGTMNNYPTWRRTLLRRAKEEEMKRFCKAQTIQRRLNEIEAALRELEAEGVKLELALRRQSSSPEQQKKLWVGQLLQLVDKKNSLVAEEAELMITVQELNLEEKQWQLDQELRGYMNREENLKTAADRQAEDQVLRKLVDLVNQRDALIRFQEERRLSELALGTGAQG
chain 2: MGLPALEFSDCCLDSPHFRETLKSHEAELDKTNKFIKELIKDGKSLISALKNLSSAKRKFADSLNEFKFQCIGDAETDDEMCIARSLQEFATVLRNLEDERIRMIENASEVLITPLEKFRKEQIGAAKEAKKKYDKETEKYCGILEKHLNLSSKKKESQLQEADSQVDLVRQHFYEVSLEYVFKVQEVQERKMFEFVEPLLAFLQGLFTFYHHGYELAKDFGDFKTQLTISIQNTRNRFEGTRSEVESLMKKMKENPLEHKTISPYTMEGYLYVQEKRHFGTSWVKHYCTYQRDSKQITMVPFDQKSGGKGGEDESVILKSCTRRKTDSIEKRFCFDVEAVDRPGVITMQALSEEDRRLWMEAMDGREPVYNSNKDSQSEGTAQLDSIGFSIIRKCIHAVETRGINEQGLYRIVGVNSRVQKLLSVLMDPKTASETETDICAEWEIKTITSALKTYLRMLPGPLMMYQFQRSFIKAAKLENQESRVSEIHSLVHRLPEKNRQMLQLLMNHLANVANNHKQNLMTVANLGVVFGPTLLRPQEETVAAIMDIKFQNIVIEILIENHEKIFNTVPDMPLTNAQLHLSRKKSSDSKPPSCSERPLTLFHTVQSTEKQEQRNSIINSSLESVSSNPNSILNSSSSLQPNMNSSDPDLAVVKPTRPNSLPPNPSPTSPLSPSWPMFSAPSSPMPTSSTSSDSSPVSTPFRKAKALYACKAEHDSELSFTAGTVFDNVHPSQEPGWLEGTLNGKTGLIPENYVEFL
B3: myc-MICAL1 [human] / GRAF2-GFP [human] (parent complex)
chain 1: B2 chain 1
chain 2: MGLQPLEFSDCYLDSPWFRERIRAHEAELERTNKFIKELIKDGKNLIAATKSLSVAQRKFAHSLRDFKFEFIGDAVTDDERCIDASLREFSNFLKNLEEQREIMALSVTETLIKPLEKFRKEQLGAVKEEKKKFDKETEKNYSLIDKHLNLSAKKKDSHLQEADIQVEQNRQHFYELSLEYVCKLQEIQERKKFEFVEPMLSFFQGMFTFYHQGHELAKDFNHYKMELQINIQNTRNRFEGTRSEVEELMNKIRQNPKDHKRASQFTAEGYLYVQEKRPAPFGSSWVKHYCMYRKAAKKFNMIPFEHRSGGKLGDGEVFFLKECTKRHTDSIDRRFCFDIEAADRPGVSLTMQAFSEEERKQWLEALGGKEALSHSFNTAIIPRPEGNAQLDKMGFTIIRKCISAVETRGINDQGLYRVVGVSSKVQRLLSMLMDVKTCNEVDLENSADWEVKTITSALKQYLRSLPEPLMTYELHGDFIVPAKSGSPESRVNAIHFLVHKLPEKNKEMLDILVKHLTNVSNHSKQNLMTVANLGVVFGPTLMRPQEETVAALMDLKFQNIVVEILIENHEKIFRTPPDTTFPEPTCLSASPPNAPPRQSKRQGQRTKRPVAVYNLCLELEDGDNPYPSKEDTPTSSLDSLSSPSPVTTAVPGPPGPDKNHLLADGGSFGDWASTIPGQTRSSMVQWLNPQSPTTTSSNSAVTPLSPGSSPFPFSPPATVADKPPESIRSRKARAVYPCEAEHSSELSFEIGAIFEDVQTSREPGWLEGTLNGKRGLIPQNYVKLL

Variants of: B1
Assay: co-immunoprecipitation (IP with α-GFP, quantified western blot); transfected 293T cells; n = 3 or 4; means ± SEM; parent: 1; read off a plot

Row | ratio to parent | Variant
1 | ~0.4 | chain 1 MASASGAMAKHEQILVLDPPTDLKFKGPFTDVVTTNLKLRNPSDRKVCFKVKTTAPRRYCVRPNSGIIDPGSTVTVSVMLQPFDYDPNEKSKHDFDVQTIFAPPNTSDMEAVWKEAKPDELMDSKLRCVFEMPNENDKLNDMEPSKAVPLNASKQDGPMPKPHSVSLNDTETRKLMEECKRLQGEMMKLSEENRHLRDEGLRLRKVAHSDKPGSTSTASFRDNVTSPLPSLLVVIAAIFIGFFLGKFIL [chain 1 K94D, chain 1 M96D]

Variants of: B2
Assay: co-immunoprecipitation (IP with α-myc-coated beads, quantified western blot); transfected 293T cells; n = 3–5; means ± SEM; parent: 1; read off a plot

Row | ratio to parent | Variant
2 | ~0.05 | chain 1 K832A

Variants of: B3
Assay: co-immunoprecipitation (IP with α-myc-coated beads, quantified western blot); transfected 293T cells; n = 3 or 4; means ± SEM; parent: 1; read off a plot

Row | ratio to parent | Variant
3 | ~0.03 | chain 1 K832A
